# In patent US20230265187A1 (published 2023):
# T1: his-tagged human TIGIT (Acro Biosystems #TIT-H52H3) (human, UniProt Q495A1 22-141)
# T1 construct: Bought protein; also called His-tagged-TIGIT (human); not shown: his tag
# T1 sequence (looked up): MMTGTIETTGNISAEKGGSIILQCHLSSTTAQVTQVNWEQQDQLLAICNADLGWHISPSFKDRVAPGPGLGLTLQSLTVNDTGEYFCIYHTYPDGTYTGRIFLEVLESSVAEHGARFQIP
# T2: his-tagged murine TIGIT (Acro Biosystems #TIT-M52E6) (murine, UniProt P86176 29-148, limits assumed)
# T2 construct: Bought protein; also called mouse his-tagged TIGIT; not shown: his tag
# T2 sequence (looked up): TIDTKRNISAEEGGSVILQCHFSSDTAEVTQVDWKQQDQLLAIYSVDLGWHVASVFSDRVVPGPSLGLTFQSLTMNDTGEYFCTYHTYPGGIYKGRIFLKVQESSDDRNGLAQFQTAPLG
# T3: human TIGIT on Jurkat cells (TIGIT/NFAT reporter Jurkat cells, BPS Bioscience #60538); Promega TIGIT Effector … (human, UniProt Q495A1 22-244)
# T3 construct: whole, on cells; Same protein on two bought Jurkat lines (flow cytometry: BPS; bioassay: Promega); also called hu TIGIT cells; cells expressing human TIGIT
# T3 sequence (looked up): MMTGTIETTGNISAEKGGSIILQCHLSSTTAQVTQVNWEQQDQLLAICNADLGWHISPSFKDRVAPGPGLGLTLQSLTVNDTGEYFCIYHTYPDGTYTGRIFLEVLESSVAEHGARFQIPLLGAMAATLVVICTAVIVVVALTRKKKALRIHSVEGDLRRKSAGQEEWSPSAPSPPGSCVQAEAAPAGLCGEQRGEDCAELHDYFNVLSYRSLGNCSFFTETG
# Legend:
# [1] = target: T4, His-tagged cynomolgus monkey TIGIT (Acro Biosystems #TIT-05223) (cynomolgus monkey, UniProt A0A7N9I9V4 89-209); experiment: ELISA, coated His-TIGIT, 1 ug/ml
# T4 construct: Bought protein; also called cyno TIGIT; cynomolgus TIGIT; not shown: His tag
# [2] = target: T1, his-tagged human TIGIT (Acro Biosystems …); experiment: ELISA, coated His-TIGIT, 1 ug/ml
# [3] = target: T2, his-tagged murine TIGIT (Acro …); experiment: ELISA, coated His-TIGIT, 1 ug/ml
# [4] = target: T3, human TIGIT on Jurkat cells (TIGIT/NFAT …); experiment: flow cytometry, TIGIT/NFAT Jurkat cells, 10 ug/ml
# [5] = target: T1, his-tagged human TIGIT (Acro Biosystems …); experiment: SPR (Carterra LSA), scFv-Fc captured, His-TIGIT analyte
# Description: Binding affinities of anti-TIGIT antibodies to human, cyno, and murine TIGIT were measured by Surface Plasmon Resonance (SPR) on a Carterra LSA instrument. Goat anti-human Fc antibody was amine coupled to a HC30M chip. ScFv-Fc supernatants were diluted 30-fold with HBSTE and were captured by the anti-human Fc coupled HC30M chip. A 1:2 dilution series of his-tagged human TIGIT, starting at 400 nM, was injected onto the chip for binding. A dilution series was also carried out for cyno TIGIT and murine TIGIT. Data were analyzed using the Carterra™ Kinetics software.
# T4 sequence (A0A7N9I9V4 entry or part of it): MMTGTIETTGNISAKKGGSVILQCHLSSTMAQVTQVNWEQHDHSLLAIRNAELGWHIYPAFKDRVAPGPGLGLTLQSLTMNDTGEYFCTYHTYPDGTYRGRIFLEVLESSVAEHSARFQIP
Binder,Elisa OD450 [1],Elisa OD450 [2],Elisa OD450 [3],MFI [4],Kd [5]
"43586p1.2.A4 (scFv, V domains shown) VH: EVQLLESGGGLVQPGGSLRLSCAASGFTVSDHHMSWVRQAPGKGLEWVSGIDPGGKTYYVDSVKGRFTISRDNSKNTLYLQMNSLRAEDTAVYYCAREQYDWNDDMDVWGQGTTVTVSS VL: QSVLTQPPSASGTPGQRVTISCSGSRSNVGDHYVSWYQQFPGTAPKLLIYANYQRPSGVPDRFSGSKSGTSASLAISGLQSEDEADHYCASWDASLNVWVFGGGTKLTVL",0.239 OD450,1.69 OD450,1.82 OD450,13700 MFI,
"43586p2.B03 (scFv, V domains shown) VH: EVQLLESGGGWVQPGGSLRLSCAASGFTFIDYWMSWVRQAPGKGLEWVSSISWIGDTTFYADSVKGRFTISRDSSLNTVYLQMNSLRAEDTAVYYCAKHWTVYQYGMDVWGQGTTVTVSS VL: QSVLTQPPSASGTPGQRVTISCSGGSSKIGSKYVHWYQQLPGTAPKLLIYKDDQRPSGVPDRFSGSKSGTSASLAISGLQSEDEADYYCAAWDDRVNAWVFGGGTKLTVL",0.047 OD450,1.16 OD450,0.047 OD450,6110 MFI,67.3 nM
"43586p2.B05 (scFv, V domains shown) VH: EVQLLESGGGLVQPGGSLRLSCAASGFTFSDYYMNWVRQAPGKGLEYVASINWNGGTTYYADSVKGRFTISRDNSKNTLYLQMSSLRAEDTAVYYCAKDQNWNFYYGMDVWGQGTTVTVSS VL: QSVLTQPPSASGTPGQRVTISCSGGSSNIGNNFVSWYQQLPGTAPKLLIYNEIKRPSGVPDRFSASKSGTSASLAISGLQSEDEADYYCASWDGSLRGWVFGGGTKLTVL",1.32 OD450,1.84 OD450,0.07 OD450,9320 MFI,0.119 nM
"43586p2.C01 (scFv, V domains shown) VH: EVQLLESGGGLVQPGGSLRLSCAASGFTFSDYYMNWVRQAPGKGLEYVASINWNGGTTYYADSVKGRFTISRDNSKNTLYLQMNSLRAEDTAVYYCAKDQNWNFYYGMDVWGQGTTVTVSS VL: QSVLTQPPSASGTPGQRVTISCSGGSSNIGNNFVSWYQQLPGTAPKLLIYNEIKRPSGVPDRFSASKSGTSASLAISGLQSEDEADYYCASWDGSLRGWVFGGGTKLTVL",1.32 OD450,1.81 OD450,0.046 OD450,7770 MFI,0.151 nM

# The remaining lines, values ahead:
Elisa OD450 [1],Elisa OD450 [2],Elisa OD450 [3],MFI [4],Kd [5],Binder
0.069 OD450,0.477 OD450,0.052 OD450,4100 MFI,,"43645p1.F12 (scFv, V domains shown) VH: EVQLLESGGGLVQPGGSLRLSCAASGFTFSDYWMSWVRQAPGKGLEWVSSINWNGDNTYYYADSVKGRFTISRDNSKNTLYLQMNSLRAEDTAVYYCAKSHTVLQYGMDVWGQGTTVTVSS VL: QSVLTQPPSASGTPGQRVTISCSGSSSNIQSNYVYWYQQLPGTAPKLLIYGNHQRPSGVPDRFSGSKSDTSASLAISGLQSEDEADYYCATWDASLNVWVFGGGTKLTVL"
1.38 OD450,1.76 OD450,0.052 OD450,9410 MFI,0.0906 nM,"43645p1.B8 (scFv, V domains shown) VH: EVQLLESGGGLVQPGGSLRLSCAASGFTFSDFWMSWVRQAPGKGLEWVSSIINIQTYDYATYYADSVKGRFTISRDNSKNTLYLQMNSLRAEDTAIYYCAKDVAPGLPGGMDVWGQGTTVTVSS VL: QSVLTQPPSASGTPGQRVTISCSGSNSNIRNNFVSWYQHLPGMAPKLLIYGNSQRPSGVPDRFSGSKSGTSASLAISGLQSEDEADYYCTSWDFSVNGWVFGGGTKLTVL"
0.987 OD450,1.75 OD450,1.29 OD450,14400 MFI,,"43586p2.F10 (scFv, V domains shown) VH: VESGGGLVQPGGSLRLSCAASGFTVSDHYVSWVRQAPGKGLEWVSTSSSTNWNDGRTYYADSVKGRFTISRDNSENTLYLQMNSLRAEDTAVYYCAKDQYKGNDYYYYGMDVWGQGTTVTVSS VL: QSVLTQPPSASGTPGQRVTISCSASNSYIGTKYFYWYQQLPGTAPKLLIYLDSQRPSGVPDRFSGSKSGTSVSLAISGLQSEDEADYYCAFWDDHLHGWVFGGGTKLTVL"
